Residue numbers refer to the chain shown, from its start. Blank lines part the entries; values can stand above or below the binder they belong to.
Key:
[1] = target: T1, His-tagged human FcγRI (human, UniProt P12314 16-288); assay: SPR (Biacore T200), His-captured human FcγRI, antibody injected, 25 C
T1 construct: also called human FcRγI; hFcγRI
Protocol: Briefly, SPR experiments were performed at 25° C. on a Biacore T200 instrument employing a carboxymethyl dextran-coated (CM-5) chip. A mouse monoclonal anti-penta-histidine antibody (GE Healthcare) was immobilized on the surface of the CM-5 sensor chip using standard amine-coupling chemistry. […] Kinetic association (kₐ) and dissociation (kd) rate constants were determined by processing and fitting the data to a 1:1 binding model using Scrubber 2.0 curve fitting software. Binding dissociation equilibrium constants (KD) and dissociative half-lives (t_{1/2}) were calculated from the kinetic rate constants as: KD (M)=kd/kₐ; and t_{1/2}(min)=(ln 2/(60*kd).

[2] = target: T2, human CD20 on cells (Raji, CD3-, CD20+ human B-cell line; B16F10.9/CD20 cells) (human, UniProt P11836 1-297); assay: cell-based or functional assay
T2 sequence (looked up): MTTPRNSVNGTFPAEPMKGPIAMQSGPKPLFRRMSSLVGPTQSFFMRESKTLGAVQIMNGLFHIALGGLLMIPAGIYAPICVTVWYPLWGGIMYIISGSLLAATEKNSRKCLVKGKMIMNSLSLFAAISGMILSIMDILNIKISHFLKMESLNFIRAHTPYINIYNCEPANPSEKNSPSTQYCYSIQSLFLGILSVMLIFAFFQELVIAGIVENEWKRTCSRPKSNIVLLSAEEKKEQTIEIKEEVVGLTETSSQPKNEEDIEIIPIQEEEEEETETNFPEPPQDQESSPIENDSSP

[3] = target: T2, human CD20 on cells (Raji, CD3-, CD20+ …); assay: cell-based or functional assay; remark: listed apart in the source
[4] = target: T3, His-tagged cynomolgus FcγRIIIA (cynomolgus monkey, UniProt Q8SPW2 17-208, limits assumed); assay: SPR steady-state, His-captured FcγR, antibody injected, 25 C
T3 construct: also called cyno FcyRIIIA
T3 sequence (Q8SPW2 17-208 limits assumed): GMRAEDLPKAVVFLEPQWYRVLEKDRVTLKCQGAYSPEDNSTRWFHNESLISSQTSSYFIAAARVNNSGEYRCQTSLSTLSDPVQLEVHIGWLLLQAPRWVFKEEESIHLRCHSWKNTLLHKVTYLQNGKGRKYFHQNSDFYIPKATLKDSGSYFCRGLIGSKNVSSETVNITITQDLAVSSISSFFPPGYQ

[5] = target: T4, His-tagged cynomolgus FcγRIIA (cynomolgus monkey, UniProt A0A140HDN0 30-216); assay: as above
T4 construct: also called cyno FcyRIIA
T4 sequence: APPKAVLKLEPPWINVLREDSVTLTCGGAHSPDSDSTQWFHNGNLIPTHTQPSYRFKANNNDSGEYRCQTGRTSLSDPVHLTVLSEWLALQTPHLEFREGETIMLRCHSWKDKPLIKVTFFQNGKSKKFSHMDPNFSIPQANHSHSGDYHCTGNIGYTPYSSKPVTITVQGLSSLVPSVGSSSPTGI

[6] = target: T5, His-tagged human FcγRIIIA (F176) (human, UniProt P08637 17-208); assay: as above
T5 construct: also called human FcyRIIIA (F176)
T5 sequence (P08637 17-208 limits assumed): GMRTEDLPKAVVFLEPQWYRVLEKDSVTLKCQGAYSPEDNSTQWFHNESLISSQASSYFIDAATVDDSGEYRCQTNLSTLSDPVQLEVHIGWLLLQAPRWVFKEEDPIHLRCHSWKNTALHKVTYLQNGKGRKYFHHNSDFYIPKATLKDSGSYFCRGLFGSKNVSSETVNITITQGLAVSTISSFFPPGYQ

[7] = target: T6, His-tagged human FcγRIIIB (human, UniProt O75015 17-200); assay: as above
T6 construct: also called human FcyRIIIB
T6 sequence (O75015 17-200 limits assumed): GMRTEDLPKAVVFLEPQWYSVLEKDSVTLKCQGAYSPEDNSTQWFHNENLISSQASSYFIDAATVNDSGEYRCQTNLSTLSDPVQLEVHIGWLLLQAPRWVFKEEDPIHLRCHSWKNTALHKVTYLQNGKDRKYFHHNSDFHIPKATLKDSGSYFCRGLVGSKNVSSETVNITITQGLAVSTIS

[8] = target: T7, His-tagged human FcγRIIIA (V176) (human, UniProt P08637 17-208); assay: as above
T7 construct: also called human FcyRIIIA (V176)
T7 sequence (P08637 17-208 F176V limits assumed): as the sequence (P08637 17-208 limits assumed) above, with F160V counted along it

[9] = target: T8, His-tagged human FcγRIIA (R131) (human, UniProt P12318 36-218, limits assumed); assay: as above
T8 construct: also called human FcyRIIA (R131)
T8 sequence (looked up): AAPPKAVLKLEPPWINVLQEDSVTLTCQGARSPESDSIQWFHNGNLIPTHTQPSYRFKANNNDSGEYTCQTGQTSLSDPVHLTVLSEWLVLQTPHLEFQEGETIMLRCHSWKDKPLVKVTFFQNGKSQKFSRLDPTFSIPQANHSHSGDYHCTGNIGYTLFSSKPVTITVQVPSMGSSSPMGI

[10] = target: T9, His-tagged cynomolgus FcγRIIB (cynomolgus monkey, UniProt A0A140HDP4 46-217); assay: as above
T9 construct: also called cyno FcyRIIB
T9 sequence: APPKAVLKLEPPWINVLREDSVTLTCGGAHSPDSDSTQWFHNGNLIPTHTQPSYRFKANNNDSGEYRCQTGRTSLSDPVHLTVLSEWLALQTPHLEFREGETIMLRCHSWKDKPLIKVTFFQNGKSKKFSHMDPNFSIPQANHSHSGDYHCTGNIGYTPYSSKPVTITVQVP

[11] = target: T10, His-tagged human FcγRIIA (H131) (human, UniProt P12318 36-218, limits assumed); assay: as above
T10 construct: also called hFcyRIIA (H131)
T10 sequence (looked up): T8 sequence (looked up) with R132H

[12] = target: T11, His-tagged human FcγRIIB (human, UniProt P31994 46-217, limits assumed); assay: as above
T11 construct: also called human FcyRIIB
T11 sequence (looked up): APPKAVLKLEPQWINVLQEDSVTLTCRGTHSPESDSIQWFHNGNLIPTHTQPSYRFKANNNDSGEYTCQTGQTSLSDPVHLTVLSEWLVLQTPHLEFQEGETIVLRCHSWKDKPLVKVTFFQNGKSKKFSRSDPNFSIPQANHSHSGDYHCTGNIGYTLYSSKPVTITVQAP

[13] = target: T2, human CD20 on cells (Raji, CD3-, CD20+ …); assay: cell-based or functional assay; remark: listed apart in the source
[14] = target: T12, cynomolgus CD3 on T cells of cynomolgus PBMCs (mkT cells) (cynomolgus monkey); assay: FACS, serially diluted antibody on cynomolgus PBMC T cells (mkT cells)
T12 construct: whole, on cells; also called cynomolgus T cells; monkey T-cells
Protocol: (§1) FACS data was acquired using the following protocol: Cells at 2×10⁵ per well were incubated with serially diluted antibodies for 30 min on ice. Post incubation, cells were washed and appropriate secondary (Jurkat, RAJI cells) or cocktail of secondary antibodies (for cyno PBMC) was added and incubated for an additional 30 minutes. After incubation, cells were washed, re-suspended in cold PBS containing 1% BSA and analyzed by flow cytometry on a BD FACS Canto II. Jurkat and Raji cells were gated by side and forward scatters, while cynomolgus T cells were also gated as a CD2+CD4+ population. The EC₅₀s for cell binding titration were determined using Prism software with values calculated using a 4-parameter non-linear regression analysis.

[15] = target: T2, human CD20 on cells (Raji, CD3-, CD20+ …); assay: FACS, serially diluted antibody on Raji cells (CD3-, CD20+)
Protocol: as §1

[16] = target: T13, human CD3 on Jurkat cells (CD3+, CD20- human T-cell line) (human, UniProt P07766 23-207; P04234 22-171; P09693 23-182; P20963 22-164); assay: FACS, serially diluted antibody on Jurkat cells (CD3+, CD20-)
T13 construct: whole, on cells; SP34 is said to react with the epsilon chain
Protocol: as §1

T1 sequence (P12314 16-288 limits assumed): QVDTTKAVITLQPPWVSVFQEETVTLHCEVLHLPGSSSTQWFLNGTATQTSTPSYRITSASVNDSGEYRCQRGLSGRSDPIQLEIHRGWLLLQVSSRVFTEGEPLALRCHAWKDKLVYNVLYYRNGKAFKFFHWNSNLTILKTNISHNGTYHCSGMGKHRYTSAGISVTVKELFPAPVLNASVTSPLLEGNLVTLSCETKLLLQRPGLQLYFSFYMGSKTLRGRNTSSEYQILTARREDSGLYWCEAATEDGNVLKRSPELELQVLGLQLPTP

binding result [1]: no binding | Kd [4]: 663 nM | Kd [5]: 231 nM | binding result [6]: no binding | binding result [7]: no binding | binding result [8]: no binding | Kd [9]: 193 nM | Kd [10]: 139 nM | Kd [11]: 120 nM | Kd [12]: 1230 nM
B1: Antibody 1 (CD3×CD20-chimericFc bispecific antibody) (bispecific antibody, human IgG4 S228P)
heavy 1: EVQLVESGGGLVQPGRSLRLSCVASGFTFNDYAMHWVRQAPGKGLEWVSVISWNSDSIGYADSVKGRFTISRDNAKNSLYLQMHSLRAEDTALYYCAKDNHYGSGSYYYYQYGMDVWGQGTTVTVSSASTKGPSVFPLAPCSRSTSESTAALGCLVKDYFPEPVTVSWNSGALTSGVHTFPAVLQSSGLYSLSSVVTVPSSSLGTKTYTCNVDHKPSNTKVDKRVESKYGPPCPPCPAPPVAGPSVFLFPPKPKDTLMISRTPEVTCVVVDVSQEDPEVQFNWYVDGVEVHNAKTKPREEQFNSTYRVVSVLTVLHQDWLNGKEYKCKVSNKGLPSSIEKTISKAKGQPREPQVYTLPPSQEEMTKNQVSLTCLVKGFYPSDIAVEWESNGQPENNYKTTPPVLDSDGSFFLYSRLTVDKSRWQEGNVFSCSVMHEALHNHYTQKSLSLSLGK
heavy 2: EVQLVESGGGLVQPGRSLRLSCAASGFTFDDYTMHWVRQAPGKGLEWVSGISWNSGSIGYADSVKGRFTISRDNAKKSLYLQMNSLRAEDTALYYCAKDNSGYGHYYYGMDVWGQGTTVTVASASTKGPSVFPLAPCSRSTSESTAALGCLVKDYFPEPVTVSWNSGALTSGVHTFPAVLQSSGLYSLSSVVTVPSSSLGTKTYTCNVDHKPSNTKVDKRVESKYGPPCPPCPAPPVAGPSVFLFPPKPKDTLMISRTPEVTCVVVDVSQEDPEVQFNWYVDGVEVHNAKTKPREEQFNSTYRVVSVLTVLHQDWLNGKEYKCKVSNKGLPSSIEKTISKAKGQPREPQVYTLPPSQEEMTKNQVSLTCLVKGFYPSDIAVEWESNGQPENNYKTTPPVLDSDGSFFLYSRLTVDKSRWQEGNVFSCSVMHEALHNRFTQKSLSLSLGK
VL: EIVMTQSPATLSVSPGERATLSCRASQSVSSNLAWYQQKPGQAPRLLIYGASTRATGIPARFSGSGSGTEFTLTISSLQSEDFAVYYCQHYINWPLTFGGGTKVEIKR
notes: Only the light chain variable region is tied to this antibody; also called Ab 1; Ab1
% Survival B16F10.9/CD20 cells [M] (EC50, target-specific killing, FACS) [2]: 1.95e-11 M | Raji Cytotoxicity Activated Human T-cells [M] (EC50, calcein release) [3]: 2.5e-11 M | Raji Cytotoxicity Activated Monkey T-cells [M] (EC50, calcein release) [3]: 9.1e-12 M

EC50 [14]: 8740 nM | EC50 [15]: 59.9 nM | EC50 [16]: 38.5 nM
B2: (Control) Antibody 4, CD3×CD20 antibody-wild-type Fc (wtFc) (bispecific antibody, human IgG1)
heavy 1: not shown
heavy 2: not shown
VL: B1 VL
notes: Same variable regions as Antibody 1 and Antibody 2, wild-type IgG1 CH; also called Control Ab 4; Control 4
% Survival B16F10.9/CD20 cells [M] (EC50, target-specific killing, FACS) [2]: 1.28e-11 M | Raji Cytotoxicity Human T-cells [M] (EC50, calcein release) [13]: 5.63e-11 M | Raji Cytotoxicity Monkey T-cells [M] (EC50, calcein release) [13]: 1.27e-12 M | Raji Cytotoxicity Activated Human T-cells [M] (EC50, calcein release) [3]: 1.57e-11 M | Raji Cytotoxicity Activated Monkey T-cells [M] (EC50, calcein release) [3]: 1.73e-12 M

binding result [1]: no binding | Kd [4]: 424 nM | Kd [5]: 235 nM | binding result [6]: no binding | binding result [7]: no binding | binding result [8]: no binding | Kd [9]: 205 nM | Kd [10]: 146 nM | Kd [11]: 117 nM | Kd [12]: 2330 nM
B3: Antibody 2 (CD3×CD20-chimericFc bispecific antibody) (bispecific antibody, human IgG1)
heavy 1: EVQLVESGGGLVQPGRSLRLSCVASGFTFNDYAMHWVRQAPGKGLEWVSVISWNSDSIGYADSVKGRFTISRDNAKNSLYLQMHSLRAEDTALYYCAKDNHYGSGSYYYYQYGMDVWGQGTTVTVSSASTKGPSVFPLAPSSKSTSGGTAALGCLVKDYFPEPVTVSWNSGALTSGVHTFPAVLQSSGLYSLSSVVTVPSSSLGTQTYICNVNHKPSNTKVDKKVEPKSCDKTHTCPPCPAPPVAGPSVFLFPPKPKDTLMISRTPEVTCVVVDVSQEDPEVQFNWYVDGVEVHNAKTKPREEQFNSTYRVVSVLTVLHQDWLNGKEYKCKVSNKGLPSSIEKTISKAKGQPREPQVYTLPPSRDELTKNQVSLTCLVKGFYPSDIAVEWESNGQPENNYKTTPPVLDSDGSFFLYSKLTVDKSRWQQGNVFSCSVMHEALHNHYTQKSLSLSPGK
heavy 2: EVQLVESGGGLVQPGRSLRLSCAASGFTFDDYTMHWVRQAPGKGLEWVSGISWNSGSIGYADSVKGRFTISRDNAKKSLYLQMNSLRAEDTALYYCAKDNSGYGHYYYGMDVWGQGTTVTVASASTKGPSVFPLAPSSKSTSGGTAALGCLVKDYFPEPVTVSWNSGALTSGVHTFPAVLQSSGLYSLSSVVTVPSSSLGTQTYICNVNHKPSNTKVDKKVEPKSCDKTHTCPPCPAPPVAGPSVFLFPPKPKDTLMISRTPEVTCVVVDVSQEDPEVQFNWYVDGVEVHNAKTKPREEQFNSTYRVVSVLTVLHQDWLNGKEYKCKVSNKGLPSSIEKTISKAKGQPREPQVYTLPPSRDELTKNQVSLTCLVKGFYPSDIAVEWESNGQPENNYKTTPPVLDSDGSFFLYSKLTVDKSRWQQGNVFSCSVMHEALHNRFTQKSLSLSPGK
VL: B1 VL
notes: also called Ab 2

— patent US20200115464A1 (Regeneron, published 2020)
